Measured values as given in PMC6511732.
Values joined by “and” are separate entries in the source; they are usually repeats but may differ in a detail not shown here. Identical values can stand only once. Like-named read-outs stand apart in the source and are kept apart here. Each block holds one substance with its values, some of them ahead of it.

Experiments:
Assay in all cases: native MS
[1] = molecular target: Phycocyanin α6β6 complex
[2] = molecular target: R-phycoerythrin α6β6γ complex
[3] = molecular target: Phycocyanin α6β6γ complex
[4] = molecular target: Phycocyanin αβ-heterodimer
[5] = molecular target: Phycocyanin αβ-heterodimer; remark: listed apart in the source

stoichiometry N [1]: 2
Substance: Phycocyanin α6β6 complex

stoichiometry N [2]: 2
Substance: R-phycoerythrin α6β6γ complex

stoichiometry N [3]: 2
Substance: Phycocyanin α6β6γ complex

stoichiometry N [4]: 6
stoichiometry N [5]: 3 and 6
Substance: Phycocyanin αβ-heterodimer (complex)
